Data published in patent US20030087411.

System: DAKAR-FLAG fusion protein (murine DAKAR residues 1 to 786 fused to FLAG)

**Q.** Which “cleavage products on SDS-PAGE / Western blot after in vitro incubation with the caspase” value does the source give for “purified recombinant active caspase 3 (Pharmingen)” here?
**A.** Its value is “in vitro incubation of DAKAR with 100 ng caspase 3 resulted in formation of approximately 40 and 45 kDa cleavage products”.

**Q.** For “purified recombinant active caspase 8 (Pharmingen)”, which “cleavage products on SDS-PAGE / Western blot after in vitro incubation with the caspase” value is on record?
**A.** The value was “incubation of DAKAR with 100 ng caspase 8 resulted in the formation of a 22 kDa cleavage product”.
